# Measured values reported in a protein production outcome set (Wang et al. 2014).
# Experiment: label from the status in PepcDB records
# 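Also: failed if final PepcDB status was selected cloned or expressed and not failed if soluble or beyond.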
row,Sequence,protein production
1,MAASLRSFLEQLKRQNSLYLVKKPVNPRFELGALLKKTKGTVPMFFQNIEGYDVPAVGGIVGTRENFAQALRINKSELLAKITEAITNPGETRLLPSGPVQENVLTKGFDIGKMFPIPTFHEKDSGAFITAGIVVAKDPIYGRRFTSIRRMQLNGPNNLSILIESPGLIEQYYEFERRGQAMEVAIVLGVHPAITLSSQLPTQTFGLDKYNVASRLIGEPLPVVKCKTIDLEVPADAEIVLEGRMLPYVRHPEGPFGELMGYYGPQTMQPVVEVTAVTFRNNPIFQVIFPSSYEHKLPNALMREVVLFNHVRHVVPTVQDVHLTMAGGGRCHAIISIKKTAEGQGKQAIFAALASNKDVKHVVVVNDDVDIFDPEDVEWAIATRVQADQDIIIIPGAQGTPLEPSHNLRGVSAKMGIDATYPLAEEERFARTQIPGYDQIRLEDYLTLDW,not failed
2,MAASTDIAGLEESFRKFAIHGDPKASGQEMNGKNWAKLCKDCKVADGKAVTGTDVDIVFSKVKAKSARVINYEEFKKALEELATKRFKGKSKEEAFDAICQLIAGKEPANIGVTKAKTGGAVDRLTDTSKYTGSHKER,not failed
3,MAAVSPAAAARSAAAAVRDGGEMVRRMTPQDLDRIAQAVAEAEKTTAGEIFCVLTPEVSDYRETPLVWAAASALVLPAGALLAGFRPEMLTRLFGGWSVGHQAAHDGAILSALSTYIVLQLVVFVVAALVVSIPPVRRALTPGALKTARVKRAAMEQFLSHGLHVTRDRTGVLIFAALAEHRVEVIADEGIYKAAPNAVWNEVVADLVAGLKRGKIADGFVAAVARTGGILAAHVPPRGDDRNELSDGLTILPRR,failed
4,MADCDSVTNSPLATATATLHTNRGDIKIALFGNHAPKTVANFVGLAQGTKDYSTQNASGGPSGPFYDGAVFHRVIQGFMIQGGDPTGTGRGGPGYKFADEFHPELQFDKPYLLAMANAGPGTNGSQFFITVGKTPHLNRRHTIFGEVIDAESQRVVEAISKTATDGNDRPTDPVVIESITIS,not failed
5,MADERRCGVCRPLGGPRQPWPAGLLHCSSRAIFASLCMPRIVFAPAIQRHVAMPALDVGAATVAAALQAAFAREPRLRGYLLDDQGSLRRHVALFVDGVQVRDRRGLGDPLQDDSEIYVVQALSGGLEHHHHHH,failed
6,MADFLLELRSEEIPAGLQKMAVEKLAELLSAKLKEAGINPTKIEKYATPRRIALLMRDLPAKTEAVQEERRGPRADAPEKALAGFLRSTGLTKEELELRETPKGNFYYAHIEKPGQTLIALLGEAIPAIIKTFPWPKSMRWGNFSASSESLRWVRPLKGIVALIDEQLIPIELDGITSGTETKGHPFHHPDVVTLAKASDYPEKMAAAHVMIDFDARVQKITDEARKAAQKAGLTLIEDAALAQENAGLTEWPVPLLGRFDEAYLAVPREVIQLTMRTNQKYFACTDRNQDLAAVFICVADMEAQDGGKEITQGNEKVLSARLADARFFWEQDLKIPLEDWLPRLDSVLFYEGMGSVGDKAKRIAHLSGYIADQIGADRKQAERAGLLAKADLASNMVGEFPELQGVMGGYYAKAGNEAPDVVSAVSGQYQAEAGAGVAAAVSLADRIDSLACFFVRNIRPTGSKDPFALRRAAVQIIQTIIAHQLRLPLTPLFEKAGAGDQIESLLAFITERLKVQQREAGIRYDLIDAVLALGYEDDVIRLLARVQALQSFIESEDGSDLLAGYRRAVNILKGSEASEKGDISQEDIEQPEQDLQKALQAIEAPLEQALKAEDYAAAMTALASLRQPIDQFFDKVIVNHDKAGIRSRRLALLEQIRTAMHQVADFSVVEALTIEASGRKR,failed
7,MADHSLQRRLAAIVVADVVGYSRLMEADEAATLANLRELRSGVIEPAVMRHHGRIFKVMGDGFLIEFGSAVEAVAAALEMQRAATAVEASGDRRLLLRVGVNLGDVIDDGSDVLGDDVNVAARLQTQAAPGGICISANVHGEIDGKISDRFFDAGERYLKNLTRPVHVWHWPDALQSILPLPECPSIAVLPFTNMSGDEADAPFVDGLTEDLITDLSRTAGLFVIARNSVYVYKGKPVDVRLVAQELGVRYVLEGSARRAMGRVRINAQLVDTLAGQHLWADRFDRTVEDVFELQDEVNAKIVEALVGRLTIPTPRNRPKNFEAYDLCVRARLLTEESPQTEREAYMLLQRAVELEPSYAEALGLLAYNRWLAWTHFGEPEDPNRRMAATFAQKAVDLDPNDAGCRYVLGTILAYERRWEESEAAFAKALELDPNHADTWAAMSDMSVLDGRVADGLAQIEKALRLNPYPACWYLCHLGQAQYAARDYEAAAATLRRKDTYRTNSRKFLAATLAQLGHREEARRESELFLIAHPHFTIGHWLSSQPLRDASVRDHFVDGFRKAGLPEM,failed
8,MADKEAAFDDAVEERVINEEYKIWKKNTPFLYDLVMTHALEWPSLTAQWLPDVTRPDGKDFSIHRLVLGTHTSDEQNHLVIASVQLPNDDAQFDASHYDSEKGEFGGFGSVSGKIEIEIKINHEGEVNRARYMPQNPCIIATKTPSCDVLVFDYTKHPSKPDPSGECNPDLRLRGHQKEGYGLSWNPNLSGNLLSASDDHTICLWDISAVPKEGKVVDAKTIFTGHTAVVEDVSWHLLHESLFGSVADDQKLMIWDTRSNNTSKPSHSVDAHTAEVNCLSFNPYSEFILATGSADKTVALWDLRNLKLKLHSFESHKDEIFQVQWSPHNETILASSGTDRRLNVWDLSKIGEEQSPEDAEDGPPELLFIHGGHTAKISDFSWNPNEPWVICSVSEDNIMQVWQMAENIYNDEDTEGSVDPEGQGS,not failed
9,MADKTGTPHPLTEPGVWIERIGGRVFPPHLPALFLDRDGTINVDTDYPSDPAEIVLRPQMLPAIATANRAGIPVVVVTNQSGIARGYFGWSAFAAVNGRVLELLREEGVFVDMVLACAYHEAGVGPLAIPDHPMRKPNPGMLVEAGKRLALDLQRSLIVGDKLADMQAGKRAGLAQGWLVDGEAAVQPGFAIRPLRDSSELGDLLAAIETLGRDNRS,not failed
10,MADLRKAARGRECQVRIPGVCNGNPETSVLAHIRLTGLCGTGTKPPDLIATIACSACHDEIDRRTHFVDAGYAKECALEGMARTQVIWLKEGVIKA,not failed
11,MADLTDALIDAALERGRSAHANEPRAAKARYDRSSARVIVDLENGCTFAFPPRLAQGLEGASDDQLCAVEILGQGYGLHWETLDVDLSLPGLMAGIFGTKAWMAKRAEPPPSAAKDAWSNLPR,not failed
12,MADNYVIWFENLRMTDVERVGGKNASLGEMISQLTEKGVRVPGGFATTAEAYRAFLAHNGLSERISAALAKLDVEDVAELARVGKEIRQWILDTPFPEQLDAEIEAAWNKMVADAGGADISVAVRSSATAEDLPDASFAGQQETFLNINGLDNVKEAMHHVFASLYNDRAISYRVHKGFEHDIVALSAGVQRMVRSDSGASGVMFTLDTESGYDQVVFVTSSYGLGENVVQGAVNPDEFYVFKPTLKAGKPAILRKTMGSKHIKMIFTDKAEAGKSVTNVDVPEEDRNRFSITDEEITELAHYALTIEKHYGRPMDIEWGRDGLDGKLYILQARPETVKSQEEGNRNLRRFAINGDKTVLCEGRAIGQKVGQGKVRLIKDASEMDSVEAGDVLVTDMTDPDWEPVMKRASAIVTNRGGRTCHAAIIARELGIPAVVGCGNATELLKNGQEVTVSCAEGDTGFIYAGLLDVQITDVALDNMPKAPVKVMMNVGNPELAFSFANLPSEGIGLARMEFIINRQIGIHPKALLEFDKQDDELKAEITRRIAGYASPVDFYVDKIAEGVATLAASVYPRKTIVRMSDFKSNEYANLVGGNVYEPHEENPMLGFRGAARYVADNFKDCFALECKALKRVRDEMGLTNVEIMIPFVRTLGEAEAVVKALKENGLERGKNGLRLIMMCELPSNAVLAEQFLQYFDGFSIGSNDMTQLTLGLDRDSGLVSESFDERNPAVKVMLHLAISACRKQNKYVGICGQGPSDHPDFAKWLVEEGIESVSLNPDTVIETWLYLANELNK,not failed
13,MADSKGTASPAKPLQPPSAATPIIERVIKQMESEDGWVSLGEVGKHLSNLASDFDPRTFGFRKLSDLVRKTNAFELEQQNGHLEHHHHHH,failed
14,MADSKKITFEMNESVLTAQFSRLDEMASVVERRFSELKMTIEDVGNADPGSKITESLGGLQSGLGTISSAFGQLGSSSEAITSGFGTAVGSVGGITDAFKNLGSSVQNGTLFSSLSTGIGGMSTMLGGVTGGVQGITNLASGFMELKNHLGGLMSSIGGVGGIMGKLTSPMGLVIIGIVALVAAFTYLMTTNESFRNTVMSVVTQVAQLFGQLVASLMPIIMQIITAVMQIGAALMPIVMQFISFFAQLLAQLMPFINMLIAMLMPVIMQIVQVVMSLVSALLPSIMTVIQGIMSVIQFLIPIIMKIATVVVQIVVTIISYISKIMPIVMMIIGVIISIITTIISYIVVIATTISNVIGKIISFIASVITSIIGIVQPIIGFITNIFSSIVTVIGAAFQMVFAVASKIWNAIMATISGIIDGIKSVITGISTTVSSVFNGVKRIITGVFDGIKGAWGGLTEFVGTIFDGVSNAIQTVVDNVKGFVNVVIRGINSAISLINKIPGVEIGKIPQLISGTTNFQGGFARMNEGGRGEMVVLPSGSQVIPHDATMKYARESARGNKSMLYTNQGTDLARVENLLERLLQKNPVIKMDDKVVSEVVSRNQANSFDQYNYTMGGAAYS,failed
15,MADTSCKLKPLCFRFVSTLKSPIAVITVTYSPGKYLASFLDSLPGATSRDTHVVMADNGSVDGVPEQAAASRSNVEFLSTGGNLGYGTAINIAARSLRARREAGEIDGEFFLVSNPDVVFDEDSIDQLLECAKRHPEAGAVGPLIREADGSAYPSARAVPTLANGIGHALLGAVWKSNPWSAAYRDDEDMDTERTAGWLSGSCLLLRWDAFDRVGGFDERYFMYMEDVDLGDRLVRAGFTNVFCPSAQIIHAKGHVAGKNPENMLPAHHESAYRFQADRLAKPWQAPIRLALRIGLKLRAGVAVGVSKMRTKASLEHHHHHH,failed
16,MAEAVERTDELVREYLLFRGFTHTLRQLDAEIKADKEKGFRVDKIVDQLQQLMQVYDLAALRDYWSYLERRLFSRLEDIYRPTINKLKTSLFRFYLVYTIQTNRNDKAQEFFAKQATELQNQAEWKDWFVLPFLPSPDTNPTFATYFSRQWADTFIISLHNFLSVLFQCMPVPVILNFDAECQRTNQVQEENEVLRQKLFALQAEIHRLKKEEQQQEEEAAALVQHKLPPYVSSMDRLGDSELALVCSQRPASLSQSPRVGFLSSLLPQSKKSPSRLSPAQGPPQAQSSAKKDSFSSQATKGKDSVPGAKDGKSLLSGPVPGEASWTHQRQRRLQDHGKERRELLSTSSSQSQCAERKPEVSGAEAEPCLELHMGPVEVLARVSTAGSEGDRPEQPFIVLSQEEYGEHHSSIMHCRVDCSGRRVASLDVDGVIKVWSFNPIMQTKASSISKSPLLSLEWATKRDRLLLLGSGVGTVRLYDTEAKKNLCEININDDMPRILSLACSPNGASFVCSAAAPSLTSQTDSSAPDIGSKGMNQVPGKLLLWDTKTMKQQLQFSLDPEPIAINCTAFNHNGNLLVTGAADGVIRLFDMQQHECAMSWKAHCGEVYSVEFSCDENAVYSIGEDRKFIQWNIHKSGLKVSESNLPSDATGPFVLSGYSGYKQVQVPRGRLFAFDSEGNYMLTCSATGGLIYKLGSEEKVLENCLSLGGHRAPVVTVDWSTAMDCGTCLTASMDGKIKLTTLLAHKL,failed
17,MAEEKVKDEAMQIMGMFQILPRLVVFDLDYTLWPFYCECRSKREMPSMYPQAKGILSALKEKGIEMAIASRSPTSDIANTFLDKLNIKPMFVAKVSKMGVTSILVGDGVTLGAFRQGLTEFTQNHNSIEKNKQVWRDKYSGKPTSSETDKD,failed
18,MAEGKAMSEFLPFSRPAMGVEELAAVKEVLESGWITTGPKNQALEQAFCQLTGNQHAIAVSSATAGMHITLMALKIGKGDEVITPSLTWVSTLNMISLLGATPVMVDVDRDTLMVTPEAIESAITPRTKAIIPVHYAGAPADIDAIRAIGERYGIAVIEDAAHAVGTYYKGRHIGAKGTAIFSFHAIKNITCAEGGLIVTDNENLARQLRMLKFHGLGVDAYDRQTWGRAPQAEVLTPGYKYNLTDINAAIALTQLVKLEHLNTRRREIAQQYQQALAALPFQPLSLPAWPHVHAWHLFIIRVDEQRCGISRDALMEALKERGIGTGLHFRAAHTQKYYRERFPTLSLPNTEWNSERICSLPLFPDMTTADADHVITALQQLAGQ,failed
